# Data taken from IntAct's records for PubMed 17571076.
# B1: Mitochondrial protein import protein ZIM17 (Saccharomyces cerevisiae), P42844 (parent)
# chain: MIPRTRTLLQSKIPITRYFARCWAPRVRYNVCRTLPAAALHTNIIAHNEVKKDDKKVHLGSFKVDKPKMMIAFTCKKCNTRSSHTMSKQAYEKGTVLISCPHCKVRHLIADHLKIFHDHHVTVEQLMKANGEQVSQDVGDLEFEDIPDSLKDVLGKYAKNNSENASQLPHPSQK
# Variants of: B1
# Settings: with hsp77_yeasx SSC1, P0CS91
# Sequence of hsp77_yeasx SSC1, P0CS91 (P0CS91 whole entry): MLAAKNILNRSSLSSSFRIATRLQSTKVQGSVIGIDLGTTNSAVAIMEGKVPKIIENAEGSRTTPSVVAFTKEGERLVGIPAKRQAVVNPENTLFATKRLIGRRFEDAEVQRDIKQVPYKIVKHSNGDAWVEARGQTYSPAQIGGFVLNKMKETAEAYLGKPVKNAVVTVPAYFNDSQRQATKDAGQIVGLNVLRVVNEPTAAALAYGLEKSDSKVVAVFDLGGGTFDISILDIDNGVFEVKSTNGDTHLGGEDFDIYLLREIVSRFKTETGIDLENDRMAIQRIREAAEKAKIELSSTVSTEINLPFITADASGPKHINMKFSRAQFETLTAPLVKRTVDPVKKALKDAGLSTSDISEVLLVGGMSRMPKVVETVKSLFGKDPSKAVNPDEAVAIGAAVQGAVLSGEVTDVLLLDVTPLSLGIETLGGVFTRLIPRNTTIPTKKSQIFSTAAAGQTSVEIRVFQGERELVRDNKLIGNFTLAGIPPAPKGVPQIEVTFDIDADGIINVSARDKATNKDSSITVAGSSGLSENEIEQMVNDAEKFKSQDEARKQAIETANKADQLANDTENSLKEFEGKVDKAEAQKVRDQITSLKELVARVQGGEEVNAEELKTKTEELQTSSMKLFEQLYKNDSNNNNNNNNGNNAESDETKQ
row,Variant,effect of a mutation on the interaction
1,MIPRTRTLLQSKIPITRYFARCWAPRVRYNVCRTLPAAALHTNIIAHNEVKKDDKKVHLGSFKVDKPKMMIAFTCKKCNTRSSHTMSKQAYEKGTVLISCPHCKVRHLIAAHLKIFHDHHVTVEQLMKANGEQVSQDVGDLEFEDIPDSLKDVLGKYAKNNSENASQLPHPSQK,disrupting interaction

# Variants of: B1
# Settings: with hsp77_yeasx SSC1, P0CS91
# Remark: another data set of the same source
row,Variant,effect of a mutation on the interaction
1,MIPRTRTLLQSKIPITRYFARCWAPRVRYNVCRTLPAAALHTNIIAHNEVKKDDKKVHLGSFKVDKPKMMIAFTCKKCNTRSSHTMSKQAYEKGTVLISCPHCKVAHLIADHLKIFHDHHVTVEQLMKANGEQVSQDVGDLEFEDIPDSLKDVLGKYAKNNSENASQLPHPSQK,disrupting interaction
2,MIPRTRTLLQSKIPITRYFARCWAPRVRYNVCRTLPAAALHTNIIAHNEVKKDDKKVHLGSFKVDKPKMMIAFTCKKCNTRSSHTMSKQAYEKGTVLISCPHCKVRALIADHLKIFHDHHVTVEQLMKANGEQVSQDVGDLEFEDIPDSLKDVLGKYAKNNSENASQLPHPSQK,disrupting interaction
